Test results reported in publication PMC9098913, “In vitro reconstitution of Escherichia coli divisome activation” (Nature Communications, 2022).

Assay: Diffusion coefficient of His-tagged FtsAs and His-SUMO on Tris-NTA membranes (FRAP)
Experimental: To study colocalization of His-tagged variants of FtsA, 0.5–1 µM of Cy5 labelled His-tagged FtsAs were added to the chamber, incubated for 20 min and washed 6x with reaction buffer. […] To control the density of membrane-bound FtsA, SUVs without and with Tris-NTA lipids were mixed to obtain the respective Tris-NTA concentrations. To perform FRET/FRAP experiments, equimolar concentrations of Cy3 and Cy5 labelled His-tagged FtsAs (total 0.5–1 µM) or His-SUMO-Cys were added to a chamber and treated as above. […] FRAP experiments were performed as described before.
Bleaching the acceptor dye leads to an increase in the donor intensity, which can be used to quantify the Foerster Resonance energy transfer (FRET)[48]. FRET efficiency was quantified with E%=Ipost/Ipost+Ipre⋅100 , where Ipost is the intensity of the […] and Ipre is the […]. […] To extract the contribution of both processes, we adjusted a routine recently published by Gerganova et al.[33]. In short, the code provides the contribution of both modes of recovery by analysing the shape of the fluorescence recovery profile. […] Contribution of diffusion leads to a change of the slope of the outer borders of the bleached region (S4h right). Thus, by measuring the change of the slope of the border recovery, diffusion and simple on/off binding can be distinguished. We developed “FRAPdiff”, a graphical user interface, which uses the original fit routine by David Rutkowski. It can be used directly on.tiff movies with annotated bleach regions as ImageJ ROIs. In addition, we added optional bleach correction, user selectable projection axis (x or y), and optional mirroring of the recovery profiles, if bleaching was not symmetric. The original fit routine for estimating the recovery and diffusion dynamics can be found at https://github.com/davidmrutkowski/1DReflectingDiffusion. FRAPdiff is available at 10.5281/zenodo.6400639[49] under the GPLv3 open-source license.

B1: FtsA R286W-His6: FtsA R286W (1-405) with amphipathic helix replaced by C-terminal His-tag (protein)
chain: MIKATDRKLVVGLEIGTAKVAALVGEVLPDGMVNIIGVGSCPSRGMDKGGVNDLESVVKCVQRAIDQAELMADCQISSVYLALSGKHISCQNEIGMVPISEEEVTQEDVENVVHTAKSVRVRDEHRVLHVIPQEYAIDYQEGIKNPVGLSGVRMQAKVHLITCHNDMAKNIVKAVERCGLKVDQLIFAGLASSYSVLTEDERELGVCVVDIGGGTMDIAVYTGGALRHTKVIPYAGNVVTSDIAYAFGTPPSDAEAIKVRHGCALGSIVGKDESVEVPSVGGRPPWSLQRQTLAEVIEPRYTELLNLVNEEILQLQEKLRQQGVKHHLAAGIVLTGGAAQIEGLAACAQRVFHTQVRIGAPLNITGLTDYAQEPYYSTAVGLLHYGKESHLNGEAEVEKRVTASV
modifications: Cy3 or Cy5 at the N-terminus in the labelled form (sortagging as for native FtsA); left off: TwinStrep-SUMO, N-terminal, cleaved | 5xGlycine tag, N-terminal, kept | His6, C-terminal, kept
Diffusion Coefficient (0.1% Tris NTA, + FtsZ, mean (n: WT 2, R286W 3)): 0.17 µm2/s
Diffusion Coefficient (0.1% Tris NTA, + FtsZ, replicate Exp1): 0.12 µm2/s
Diffusion Coefficient (0.1% Tris NTA, + FtsZ, replicate Exp2): 0.17 µm2/s
Diffusion Coefficient (0.1% Tris NTA, + FtsZ, replicate Exp3): 0.22 µm2/s
Diffusion Coefficient (0.1% Tris NTA, without FtsZ, mean (n: WT 2, R286W 3, SUMO 2)): 0.50 µm2/s
Diffusion Coefficient (0.1% Tris NTA, without FtsZ, replicate Exp1): 0.48 µm2/s
Diffusion Coefficient (0.1% Tris NTA, without FtsZ, replicate Exp2): 0.53 µm2/s
Diffusion Coefficient (0.1% Tris NTA, without FtsZ, replicate Exp3): 0.50 µm2/s
Diffusion Coefficient (0.4% Tris NTA, + FtsZ, mean (n: WT 2, R286W 3)): 0.08 µm2/s
Diffusion Coefficient (0.4% Tris NTA, + FtsZ, replicate Exp1): 0.12 µm2/s
Diffusion Coefficient (0.4% Tris NTA, + FtsZ, replicate Exp2): 0.11 µm2/s
Diffusion Coefficient (0.4% Tris NTA, + FtsZ, replicate Exp3): 0.0041 µm2/s
Diffusion Coefficient (0.4% Tris NTA, without FtsZ, mean (n: WT 2, R286W 3, SUMO 3)): 0.44 µm2/s
Diffusion Coefficient (0.4% Tris NTA, without FtsZ, replicate Exp1): 0.31 µm2/s
Diffusion Coefficient (0.4% Tris NTA, without FtsZ, replicate Exp2): 0.56 µm2/s
Diffusion Coefficient (0.4% Tris NTA, without FtsZ, replicate Exp3): 0.45 µm2/s
Diffusion Coefficient (0.6% Tris NTA, + FtsZ, mean (n: WT 5, R286W 5)): 0.0744 µm2/s
Diffusion Coefficient (0.6% Tris NTA, + FtsZ, replicate Exp1): 0.12 µm2/s
Diffusion Coefficient (0.6% Tris NTA, + FtsZ, replicate Exp2): 2.02e-8 µm2/s
Diffusion Coefficient (0.6% Tris NTA, + FtsZ, replicate Exp3): 9.38e-5 µm2/s
Diffusion Coefficient (0.6% Tris NTA, + FtsZ, replicate Exp4): 0.15 µm2/s
Diffusion Coefficient (0.6% Tris NTA, + FtsZ, replicate Exp5): 0.11 µm2/s
Diffusion Coefficient (0.6% Tris NTA, without FtsZ, mean (n: WT 4, R286W 5, SUMO 4)): 0.33 µm2/s
Diffusion Coefficient (0.6% Tris NTA, without FtsZ, replicate Exp1): 0.43 µm2/s
Diffusion Coefficient (0.6% Tris NTA, without FtsZ, replicate Exp2): 0.38 µm2/s
Diffusion Coefficient (0.6% Tris NTA, without FtsZ, replicate Exp3): 0.25 µm2/s
Diffusion Coefficient (0.6% Tris NTA, without FtsZ, replicate Exp4): 0.30 µm2/s
Diffusion Coefficient (0.6% Tris NTA, without FtsZ, replicate Exp5): 0.28 µm2/s
Diffusion Coefficient (0.8% Tris NTA, + FtsZ, mean): 0.04 µm2/s
Diffusion Coefficient (0.8% Tris NTA, + FtsZ, replicate Exp1): 0.07 µm2/s
Diffusion Coefficient (0.8% Tris NTA, + FtsZ, replicate Exp2): 0.02 µm2/s
Diffusion Coefficient (0.8% Tris NTA, + FtsZ, replicate Exp3): 0.0271 µm2/s
Diffusion Coefficient (0.8% Tris NTA, + FtsZ, replicate Exp4): 0.0336 µm2/s
Diffusion Coefficient (0.8% Tris NTA, + FtsZ, replicate Exp5): 0.0229 µm2/s
Diffusion Coefficient (0.8% Tris NTA, + FtsZ, replicate Exp6): 0.06 µm2/s
Diffusion Coefficient (0.8% Tris NTA, without FtsZ, mean): 0.22 µm2/s
Diffusion Coefficient (0.8% Tris NTA, without FtsZ, replicate Exp1): 0.17 µm2/s
Diffusion Coefficient (0.8% Tris NTA, without FtsZ, replicate Exp2): 0.22 µm2/s
Diffusion Coefficient (0.8% Tris NTA, without FtsZ, replicate Exp3): 0.26 µm2/s
Diffusion Coefficient (0.8% Tris NTA, without FtsZ, replicate Exp4): 0.17 µm2/s
Diffusion Coefficient (0.8% Tris NTA, without FtsZ, replicate Exp5): 0.30 µm2/s
Diffusion Coefficient (0.8% Tris NTA, without FtsZ, replicate Exp6): 0.20 µm2/s
Diffusion Coefficient (1% Tris NTA, + FtsZ, mean): 0.04 µm2/s
Diffusion Coefficient (1% Tris NTA, + FtsZ, replicate Exp1): 0.0437 µm2/s
Diffusion Coefficient (1% Tris NTA, + FtsZ, replicate Exp2): 0.0187 µm2/s
Diffusion Coefficient (1% Tris NTA, + FtsZ, replicate Exp3): 0.046 µm2/s
Diffusion Coefficient (1% Tris NTA, + FtsZ, replicate Exp4): 0.0142 µm2/s
Diffusion Coefficient (1% Tris NTA, + FtsZ, replicate Exp5): 0.03 µm2/s
Diffusion Coefficient (1% Tris NTA, + FtsZ, replicate Exp6): 0.09 µm2/s
Diffusion Coefficient (1% Tris NTA, without FtsZ, mean): 0.22 µm2/s
Diffusion Coefficient (1% Tris NTA, without FtsZ, replicate Exp1): 0.32 µm2/s
Diffusion Coefficient (1% Tris NTA, without FtsZ, replicate Exp2): 0.13 µm2/s
Diffusion Coefficient (1% Tris NTA, without FtsZ, replicate Exp3): 0.42 µm2/s
Diffusion Coefficient (1% Tris NTA, without FtsZ, replicate Exp4): 0.24 µm2/s
Diffusion Coefficient (1% Tris NTA, without FtsZ, replicate Exp5): 0.09 µm2/s
Diffusion Coefficient (1% Tris NTA, without FtsZ, replicate Exp6): 0.14 µm2/s
Diffusion Coefficient (Tris 0.10 %, + FtsZ): 0.17 µm2/s
Diffusion Coefficient (Tris 0.10 %, without FtsZ): 0.50 µm2/s
Diffusion Coefficient (Tris 0.40 %, + FtsZ): 0.08 µm2/s
Diffusion Coefficient (Tris 0.40 %, without FtsZ): 0.44 µm2/s
Diffusion Coefficient (Tris 0.60 %, + FtsZ): 0.0744 µm2/s
Diffusion Coefficient (Tris 0.60 %, without FtsZ): 0.33 µm2/s
Diffusion Coefficient (Tris 0.80 %, + FtsZ): 0.04 µm2/s
Diffusion Coefficient (Tris 0.80 %, without FtsZ): 0.22 µm2/s
Diffusion Coefficient (Tris 1.00 %, + FtsZ): 0.04 µm2/s
Diffusion Coefficient (Tris 1.00 %, without FtsZ): 0.22 µm2/s
Diffusion Coefficient (Tris 2.00 %, + FtsZ): 0.02 µm2/s
Diffusion Coefficient (Tris 2.00 %, without FtsZ): 0.035 µm2/s
Diffusion Coefficient ([…] Tris NTA, + FtsZ, mean (n: WT 2, R286W 3)): 0.14 µm2/s
Diffusion Coefficient ([…] Tris NTA, + FtsZ, replicate Exp1): 0.34 µm2/s
Diffusion Coefficient ([…] Tris NTA, + FtsZ, replicate Exp2): 0.000447 µm2/s
Diffusion Coefficient ([…] Tris NTA, + FtsZ, replicate Exp3): 0.07 µm2/s
Diffusion Coefficient ([…] Tris NTA, without FtsZ, mean (n: WT 2, R286W 3, SUMO 3)): 0.42 µm2/s
Diffusion Coefficient ([…] Tris NTA, without FtsZ, replicate Exp1): 0.55 µm2/s
Diffusion Coefficient ([…] Tris NTA, without FtsZ, replicate Exp2): 0.25 µm2/s
Diffusion Coefficient ([…] Tris NTA, without FtsZ, replicate Exp3): 0.47 µm2/s
Diffusion Coefficient ([…] Tris-NTA, + N (FtsNcyto), mean): 4.17E-05 µm2/s
Diffusion Coefficient ([…] Tris-NTA, + N/Z, Exp. 1): 2.50E-03 µm2/s
Diffusion Coefficient ([…] Tris-NTA, + N/Z, Exp. 2): 2.00E-05 µm2/s
Diffusion Coefficient ([…] Tris-NTA, + N/Z, Exp. 3): 1.00E-05 µm2/s
Diffusion Coefficient ([…] Tris-NTA, + N/Z, mean): 8.43E-04 µm2/s
Diffusion Coefficient ([…] Tris-NTA, + N, Exp. 1): 7.50E-05 µm2/s
Diffusion Coefficient ([…] Tris-NTA, + N, Exp. 2): 3.00E-05 µm2/s
Diffusion Coefficient ([…] Tris-NTA, + N, Exp. 3): 2.00E-05 µm2/s
Diffusion Coefficient ([…] Tris-NTA, + Z (FtsZ), mean): 0.05 µm2/s
Diffusion Coefficient ([…] Tris-NTA, + Z, Exp. 1): 0.0229 µm2/s
Diffusion Coefficient ([…] Tris-NTA, + Z, Exp. 2): 0.04 µm2/s
Diffusion Coefficient ([…] Tris-NTA, + Z, Exp. 3): 0.08 µm2/s
Diffusion Coefficient ([…] Tris-NTA, alone, Exp. 1): 0.14 µm2/s
Diffusion Coefficient ([…] Tris-NTA, alone, Exp. 2): 0.0561 µm2/s
Diffusion Coefficient ([…] Tris-NTA, alone, Exp. 3): 0.26 µm2/s
Diffusion Coefficient ([…] Tris-NTA, alone, mean): 0.15 µm2/s
Diffusion Coefficient (with FtsNcyto, mean ± s.d., p-value 0.01): 8.43 × 10^−4 ± 1.17 × 10^−3 µm^2/s
Diffusion Coefficient (without FtsNcyto, mean ± s.d., p-value 0.01): 0.05 ± 0.04 µm^2/s
